The values that follow come from US20230382976, “APTAMER ASSEMBLIES FOR PROTEIN CROSSLINKING” (UNIVERSITY OF FLORIDA RESEARCH FOUNDATION, INC., published 2023).

For series [1], the target named is T1, Type I collagen (Rattus norvegicus, UniProt P02454;P02466 P02454:152-1207,P02466:86-1125). Nature of the series: maximum binding at 23.16% mass fraction ssDNA; SYBR Safe depletion assay, deionized water, RT. As to conditions: tags: rat tail tendon, Corning; chain copies: 2,1.
Series [2] concerns the target T1, Type I collagen. Nature of the series: percent DNA bound rises with collagen; SYBR Safe depletion after centrifugation; fibers at 10-30% vol collagen. The settings on record: tags: rat tail tendon, Corning; chain copies: 2,1; hairpins predicted. The procedure: In 96 well plate, mixtures of scrambled aptamer (1 μM) were mixed with rat tail type I collagen (0.3 mg/mL). Mixtures were at 25% increments from 0% to 100% volume fraction collagen with 1 replicate. Solutions were incubated at room temperature for 2 hours and then SYBR Safe DNA stain was added in a 2:1 ratio to the aptamer-collagen solutions and incubated for 30 minutes in the dark at room temperature. The solutions were centrifuged at 2000 g for 5 minutes and the supernatant was added to a 96 well plate giving 2 repeats per solution. Fluorescent intensity was measured by exciting at 488 nm and reading emission at 520 nm.

For series [3], the target named is T1, Type I collagen. In words: maximum binding at 12.27% mass fraction ssDNA; SYBR Safe depletion assay, deionized water, RT. As to conditions: tags: rat tail tendon, Corning; chain copies: 2,1.
Series [4] concerns the target T1, Type I collagen. In words: binding capacity identical to HAP aptamer; fibers form above about 5 pmol ssDNA/ug collagen. As to conditions: tags: rat tail tendon, Corning; chain copies: 2,1. The method, then: (§1) Complexes spontaneously formed upon mixing and were incubated at room temperature overnight followed by storage in solution at 4° C. until needed.
(§2) The amount of ssDNA in the DNA aptamer-collagen complex self-assembled fibers for different volume fractions of type I collagen and ssDNA oligomer was assessed fluorometrically by measuring the intensity of a fluorescent DNA stain. Solutions of different volume fractions were diluted at a 1:2 volume ratio of fiber solution to SYBR Safe DNA stain (Invitrogen). The stain concentrate was diluted first at a 1:10,000 volume ratio in deionized water. Then the mixtures were incubated protected from light for 30 minutes at room-temperature. After incubation, the mixtures were centrifuged at 2000 g for five minutes. Supernatant was plated in duplicate into black walled 96 well microplates and fluorescence intensity was measured by exciting at 488 nm and detecting at 520 nm using a UV-Vis Synergy H1 plate reader (BioTek). ssDNA in the supernatant was quantified using a standard curve fit with a 4-parameter logistic regression to correlate fluorescent intensity to ssDNA concentration. Individual standard curves were prepared for each ssDNA to account for any differences in DNA stain interaction with the two ssDNA sequences due to their secondary structure.

In series [5] the target is T1, Type I collagen. Nature of the series: maximum binding at 29.32% mass fraction ssDNA; SYBR Safe depletion assay, deionized water, RT. The settings on record: tags: rat tail tendon, Corning; chain copies: 2,1.
In series [6] the target is T1, Type I collagen. In words: fiber formation, same as VEGF-R2 aptamer. As to conditions: tags: rat tail tendon, Corning; chain copies: 2,1. An excerpt:
(§3) A VEGF-R2 targeting aptamer sequence was used in both a monovalent (single sequence) and divalent form (two single sequences tethered by a (PEG)6 linker). For all studies, we used a random sequence ssDNA of the same length and GC content as a control to determine the effect of the targeting and functionality of the DNA aptamer as compared to the effect of purely ssDNA, respectively.32 The VEGF-R2 targeting aptamer monovalent sequence is: ‘5-GATGTGAGTGTGTGACGAGCTACGACGTCTGGTGTAATTTATAAAGACACTGTGTATATCAACAACAGAACAAGGAAAGG-3’ (SEQ ID NO:14) .The random ssDNA oligomer monovalent sequence is: ‘5-TAATGAGAAGTATGTGTAGAGTCAATGAGATACGCAATTGGGAAGACAAGAGTATTGACTCGGACTGAGTACAATCGTCC-3’ (SEQ ID NO:15). […]
(§4) Fiber morphology for the different volume fractions of type I collagen and DNA aptamer was qualitatively assessed by phase and fluorescence microscopy using immobilized fibers. For fluorescence microscopy, immobilized fibers were stained with SYBR Safe DNA stain (Invitrogen) diluted at a 1:10,000 volume ratio in deionized water. […] To quantify surface coverage, full well images were taken with a Keyence BZ-X700 fluorescence microscope.

Series [7] has as its target T1, Type I collagen. Nature of the series: binding capacity identical to random ssDNA; fibers form above about 5 pmol ssDNA/ug collagen. As to conditions: tags: rat tail tendon, Corning; chain copies: 2,1. The procedure: as §1, §2
Series [8] deals with T1, Type I collagen. Nature of the series: fiber formation by microscopy, deionized water. The settings on record: tags: rat tail tendon, Corning; chain copies: 2,1.
Series [9] has as its target T1, Type I collagen. In words: fiber formation, same as random sequence; none above 50% vol collagen. As to conditions: tags: rat tail tendon, Corning; chain copies: 2,1.
From the text: as §3, §4

Series [10] deals with T1, Type I collagen. Nature of the series: maximum binding at 17.83% mass fraction ssDNA; SYBR Safe depletion assay, deionized water, RT. As to conditions: tags: rat tail tendon, Corning; chain copies: 2,1.

T1 sequence (P02454 152-1207, chain 1 of 2): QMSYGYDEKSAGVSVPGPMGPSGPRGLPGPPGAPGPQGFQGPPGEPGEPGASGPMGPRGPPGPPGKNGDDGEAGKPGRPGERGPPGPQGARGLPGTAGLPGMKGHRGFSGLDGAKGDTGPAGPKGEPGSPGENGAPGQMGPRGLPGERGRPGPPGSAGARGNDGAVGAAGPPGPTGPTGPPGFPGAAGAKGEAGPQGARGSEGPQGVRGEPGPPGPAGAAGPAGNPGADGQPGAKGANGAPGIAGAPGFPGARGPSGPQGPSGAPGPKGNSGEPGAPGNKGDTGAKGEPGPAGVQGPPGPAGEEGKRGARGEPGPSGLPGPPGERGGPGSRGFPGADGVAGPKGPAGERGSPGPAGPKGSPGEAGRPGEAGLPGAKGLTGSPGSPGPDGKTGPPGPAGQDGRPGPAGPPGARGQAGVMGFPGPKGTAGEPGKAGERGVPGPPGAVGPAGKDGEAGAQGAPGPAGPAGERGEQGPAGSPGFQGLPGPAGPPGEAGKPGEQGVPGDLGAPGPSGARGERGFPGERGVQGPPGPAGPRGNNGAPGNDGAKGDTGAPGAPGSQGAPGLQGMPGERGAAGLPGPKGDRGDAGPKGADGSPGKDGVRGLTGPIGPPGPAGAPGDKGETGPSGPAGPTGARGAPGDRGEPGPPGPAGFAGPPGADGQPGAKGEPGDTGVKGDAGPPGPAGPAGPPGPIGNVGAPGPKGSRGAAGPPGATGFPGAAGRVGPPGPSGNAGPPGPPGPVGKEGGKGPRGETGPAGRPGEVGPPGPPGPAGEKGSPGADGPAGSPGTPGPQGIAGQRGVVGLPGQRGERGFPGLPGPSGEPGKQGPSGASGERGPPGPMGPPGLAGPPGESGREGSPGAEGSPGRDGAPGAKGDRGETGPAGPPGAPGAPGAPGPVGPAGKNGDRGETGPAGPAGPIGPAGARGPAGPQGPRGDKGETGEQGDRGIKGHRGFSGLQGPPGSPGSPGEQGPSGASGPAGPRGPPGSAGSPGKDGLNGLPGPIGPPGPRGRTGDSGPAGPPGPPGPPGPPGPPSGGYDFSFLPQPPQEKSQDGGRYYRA
T1 sequence (P02466 86-1125, chain 2 of 2): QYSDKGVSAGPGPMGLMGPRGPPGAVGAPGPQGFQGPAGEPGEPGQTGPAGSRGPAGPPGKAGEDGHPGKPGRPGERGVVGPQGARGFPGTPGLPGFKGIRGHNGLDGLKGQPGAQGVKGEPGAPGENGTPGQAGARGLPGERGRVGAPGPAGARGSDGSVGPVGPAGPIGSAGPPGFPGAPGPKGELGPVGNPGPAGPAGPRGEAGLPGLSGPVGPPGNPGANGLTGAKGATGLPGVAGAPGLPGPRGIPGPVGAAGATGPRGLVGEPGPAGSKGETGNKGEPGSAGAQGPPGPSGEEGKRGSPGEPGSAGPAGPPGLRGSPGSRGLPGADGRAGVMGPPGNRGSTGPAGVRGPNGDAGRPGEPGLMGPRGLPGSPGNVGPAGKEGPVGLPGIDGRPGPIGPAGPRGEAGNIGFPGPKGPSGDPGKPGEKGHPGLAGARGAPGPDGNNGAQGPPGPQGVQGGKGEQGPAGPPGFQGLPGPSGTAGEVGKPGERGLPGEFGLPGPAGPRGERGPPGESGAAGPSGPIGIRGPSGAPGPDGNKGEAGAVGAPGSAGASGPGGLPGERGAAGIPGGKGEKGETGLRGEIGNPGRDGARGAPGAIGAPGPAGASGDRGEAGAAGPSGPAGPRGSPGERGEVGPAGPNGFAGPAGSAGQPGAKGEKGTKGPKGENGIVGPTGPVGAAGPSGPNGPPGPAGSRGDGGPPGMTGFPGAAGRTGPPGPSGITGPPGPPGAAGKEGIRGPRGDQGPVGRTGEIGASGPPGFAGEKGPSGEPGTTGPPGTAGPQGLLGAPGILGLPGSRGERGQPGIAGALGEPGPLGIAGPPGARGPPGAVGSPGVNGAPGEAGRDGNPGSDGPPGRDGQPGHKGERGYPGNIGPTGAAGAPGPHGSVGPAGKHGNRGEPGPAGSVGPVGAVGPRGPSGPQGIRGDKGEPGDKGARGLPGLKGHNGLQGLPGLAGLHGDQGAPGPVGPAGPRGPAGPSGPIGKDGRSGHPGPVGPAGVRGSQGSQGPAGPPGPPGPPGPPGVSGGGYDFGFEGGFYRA

B1: random 33 nt ssDNA (ssDNA)
DNA: CAGAGAATCTCCATTTTAGCACTTACCTGTGAC
On to B1, for which the binding result in [1] is “binds”.

B2: scrambled 80 nt aptamer (ssDNA)
DNA: TAAAACGCGCTTAAGCTGGTGTTACTCGAGCGGTCTTCTATTGAAATAATTTCTGAAGGCACACGACATATGATCTTCAG
modifications: 5' amino C6 (5AmMC6)
For the molecule B2, the binding result in series [2] is reported as “binds”.

B3: random 15 nt ssDNA (ssDNA)
DNA: GGAGCTGTTGGCGTA
For B3, in series [3], the binding result is “binds”.

B4: random ssDNA 40 nt (Sequence R) (ssDNA)
DNA: TAAAACGCGCTTAAGCTGGTGTTACTCGAGCGGTCTTCTA
B4: the binding result in series [4] is “binds”.

B5: random 45 nt ssDNA (ssDNA)
DNA: TCCCGCGAAATTAATACGACAGCACCACTTTTGGAGGGAGATTTC
On to B5, for which the binding result in [5] was “binds”.

B6: random ssDNA oligomer monovalent 80 nt (ssDNA)
DNA: TAATGAGAAGTATGTGTAGAGTCAATGAGATACGCAATTGGGAAGACAAGAGTATTGACTCGGACTGAGTACAATCGTCC
In the case of B6, the binding result in series [6] is recorded as “binds”.

B7: HAP aptamer (Aptamer G) (ssDNA)
DNA: CAGGTGGGCGCGCTGTCGTGGGTGCTCGGGTGCGGTTGGG
Turning to B7, the binding result in [7] is “binds”.

B8: Aptamer G- (ssDNA)
DNA: CAGGTGCGCGCGCTGTCGTGCGTGCTCGCGTGCGGTTGCG
In the case of B8, the binding result in [8] was “binds”.

B9: Aptamer G+ (ssDNA)
DNA: CAGGTGGGGGCGCTGTCGTGGGGGCTCGGGGGCGGTGGGG
With B9, the binding result in series [8] was “binds”.

B10: VEGF-R2 aptamer monovalent (ssDNA)
DNA: GATGTGAGTGTGTGACGAGCTACGACGTCTGGTGTAATTTATAAAGACACTGTGTATATCAACAACAGAACAAGGAAAGG
For the molecule B10, the binding result in [9] is on record as “binds”.

B11: random 90 nt ssDNA (ssDNA)
DNA: AATTTAGGAGCTGAAGGTCAGGGCACCAGCAGCCTTTGGAAGCCTACAGGACAACAGTCAGCCTGGCTAGAAAAAAAAACAATGTCACAG
In the case of B11, in series [10], the binding result is listed as “binds”.
